# Measurements as given in patent US20220187308A1 (published 2022).
# Tests used:
# GC-hIgA = molecular target: T1, GC-hIgA (human); assay: SPR (Biacore A100), antibody from culture supernatant on a protein A chip, GC-hIgA as analyte, 25 C, 1.2 mM CaCl2, pH 7.4 (step 22-3)
# T1 construct: Recombinant human IgA used as the antigen in the Biacore A100 screen of step (22-3); also called recombinant human IgA GC-hIgA; human IgA
# Method: The culture supernatant obtained by the above method was used to analyze GC-hIgA-binding ability using Biacore A100. Antibodies in the culture supernatant were immobilized onto Sensor chip CM5 (GE Healthcare Bio-Sciences Corp.) with protein A (Invitrogen Corp.) immobilized thereon in an appropriate amount by the amine coupling method. A buffer solution containing 20 mM ACES, 150 mM NaCl, 0.05% (w/v) Tween 20, and 1.2 mM CaCl₂) (pH 7.4) were used as a running buffer. GC-hIgA was also diluted with this buffer. Assay was all carried out at 25° C.
# [1] = molecular target: T2, biotinylated human IgA-Fc (human, UniProt P01876 123-333, biotin added at the C-terminal Avitag sequence by biotin ligase (BirA)); assay: phage ELISA (Fab displayed on phage) on biotin-labeled IgA-Fc, 1.2 mM CaCl2 against 1 mM EDTA (step 22-4)
# T2 construct: also called biotin-labeled hIgA-Fc
# Method: Each well of the plate was washed with PBST to remove unbound antigens. […] The plate was left standing at 37° C. for 30 minutes for incubation. […] The plate was incubated for 1 hour. […] The chromogenic reaction of the solution in each well was terminated by the addition of sulfuric acid. Then, the developed color was assayed on the basis of absorbance at 450 nm.
# [2] = molecular target: T2, biotinylated human IgA-Fc; assay: phage ELISA (Fab displayed on phage) on biotin-labeled IgA-Fc, 1.2 mM CaCl2 against 1 mM EDTA (step 22-6)
# [3] = molecular target: T3, biotin-labeled recombinant human glypican 3 (human, UniProt P51654 25-563, biotin-labeled using EZ-Link NHS-PEG4-Biotin); assay: phage ELISA (Fab displayed on phage) on biotin-labeled GPC3, 1.2 mM CaCl2 against 1 mM EDTA
# T3 construct: also called GPC3; biotin-labeled GPC3
# Method: The plate was left standing at 37° C. for 30 minutes for incubation. […] The plate was incubated for 1 hour. […] The chromogenic reaction of the solution in each well was terminated by the addition of sulfuric acid. Then, the developed color was assayed on the basis of absorbance at 450 nm.
# T2 sequence (P01876 other isoform, or with tags, fused parts or gaps limits assumed): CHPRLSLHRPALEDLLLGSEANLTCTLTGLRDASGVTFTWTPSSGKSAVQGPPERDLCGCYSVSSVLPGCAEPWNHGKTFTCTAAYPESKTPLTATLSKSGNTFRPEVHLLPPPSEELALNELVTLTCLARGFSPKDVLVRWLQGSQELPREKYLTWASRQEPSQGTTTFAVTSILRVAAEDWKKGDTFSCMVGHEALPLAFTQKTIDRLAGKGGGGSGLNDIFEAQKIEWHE
# T3 sequence (P51654 other isoform, or with tags, fused parts or gaps limits assumed): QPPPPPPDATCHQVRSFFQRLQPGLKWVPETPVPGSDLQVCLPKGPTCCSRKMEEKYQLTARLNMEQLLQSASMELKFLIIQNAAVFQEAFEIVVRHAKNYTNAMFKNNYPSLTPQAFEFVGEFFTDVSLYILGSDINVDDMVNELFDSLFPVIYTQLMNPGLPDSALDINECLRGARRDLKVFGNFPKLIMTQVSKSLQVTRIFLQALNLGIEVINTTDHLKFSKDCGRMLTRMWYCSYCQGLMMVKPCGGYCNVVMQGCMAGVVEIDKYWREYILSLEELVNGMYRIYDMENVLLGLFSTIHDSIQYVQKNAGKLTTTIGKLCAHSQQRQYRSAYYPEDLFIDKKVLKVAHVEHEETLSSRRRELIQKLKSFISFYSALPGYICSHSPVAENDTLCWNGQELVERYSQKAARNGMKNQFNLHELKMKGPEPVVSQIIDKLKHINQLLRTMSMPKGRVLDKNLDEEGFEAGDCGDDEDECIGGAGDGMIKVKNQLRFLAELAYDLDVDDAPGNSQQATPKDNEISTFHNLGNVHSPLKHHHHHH
# T1 sequence (light, as listed by the source): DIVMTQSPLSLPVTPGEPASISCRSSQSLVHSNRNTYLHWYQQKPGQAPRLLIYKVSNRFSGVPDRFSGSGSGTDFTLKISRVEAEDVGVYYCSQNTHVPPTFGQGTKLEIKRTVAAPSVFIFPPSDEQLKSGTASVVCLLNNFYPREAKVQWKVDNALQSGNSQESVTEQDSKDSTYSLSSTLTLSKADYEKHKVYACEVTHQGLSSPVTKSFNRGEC
binder,measurement,setting,value
"GA1-IgG1 (antibody, V domains shown, From the Ca library; obtained in step (22-3)) VH: EVQLVQSGAEVKKPGSSVKVSCKASGGTFSSYAISWVRQAPGQGLEWMGGIIPIFGTANYAQKFQGRVTITADESTSTAYMELSSLRSEDTAVYYCARVAPGNWGSPYFDYWGQGTLVTVSS VL: DIQMTQSPSSLSASVGDRVTITCRASQSIEDDLAWYQQKPGKAPKLLIYEASSLQSGVPSRFSGSGSGTDFTLTISSLQPEDFATYYCQQRDSSPLTFGQGTKVEIKR",binding result,GC-hIgA,binds
"GA2-IgG1 (antibody, V domains shown, From the Ca library; obtained in step (22-4)) VH: QVQLVQSGAEVKKPGSSVKVSCKASGGTFSSYAISWVRQAPGQGLEWMGGIIPIFGTANYAQKFQGRVTITADESTSTAYMELSSLRSEDTAVYYCARPRWETAISSDAFDIWGQGTMVTVSS VL: DIQMTQSPSSLSASVGDRVTITCRASQSISDDLNWYQQKPGKAPKLLIYEASNLQSGVPSRFSGSGSGTDFTLTISSLQPEDFATYYCQQHSSSPLTFGQGTKVEIKR",binding result,[1],binds
"GA3-IgG1 (antibody, V domains shown, From the Ca library; obtained in step (22-6)) VH: QVQLVQSGAEVKKPGSSVKVSCKASGGTFSSYAISWVRQAPGQGLEWMGGIIPIFGTANYAQKFQGRVTITADESTSTAYMELSSLRSEDTAVYYCARGNGDYLEYFQHWGQGTLVTVSS VL: DIQMTQSPSSLSASVGDRVTITCRASQSISDDLAWYQQKPGKAPKLLIYEASNLQSGVPSRFSGSGSGTDFTLTISSLQPEDFATYYCQQRDSSPLTFGQGTKVEIKR",binding result,[2],binds
"CSCM-01_023 (antibody, human IgG1, kappa, V domains shown, Purified IgG in the ELISA of step (24-5)) VH: QVQLVQSGAEVKKPGASVKVSCKASGYTFTSYGISWVRQAPGQGLEWMGWISAYNGNTNYAQKLQGRVTMTTDTSTSTAYMELRSLRSDDTAVYYCARDSPLLWFGEPFFDYWGQGTLVTVSS VL: DIQMTQSPSSLSASVGDRVTITCRASQSIEDDLAWYQQKPGKAPKLLIYHASTLQSGVPSRFSGSGSGTDFTLTISSLQPEDFATYYCQQSDSYPLTFGQGTKVEIKR",binding result,[3],binds
